From article PMC8752864 (Nature Communications, 2022) come the findings set out here.

The data set concerns the molecule itself. Description: cryo-EM structure.

B1: RNA polymerase of influenza A/Brevig Mission/1/1918 (H1N1) virus, heterotrimer of PA, PB1 and PB2 (complex)
chain 1: […]
chain 2: MDVNPTLLFLKVPAQNAISTTFPYTGDPPYSHGTGTGYTMDTVNRTHQYSEKGRWTTNTETGAPQLNPIDGPLPEDNEPSGYAQTDCVLEAMAFLEESHPGIFENSCLETMEVVQQTRVDKLTQGRQTYDWTLNRNQPAATALANTIEVFRSNGLTANESGRLIDFLKDVMESMDKEEMEITTHFQRKRRVRDNMTKKMVTQRTIGKKKQRLNKRSYLIRALTLNTMTKDAERGKLKRRAIATPGMQIRGFVYFVETLARSICEKLEQSGLPVGGNEKKAKLANVVRKMMTNSQDTELSFTITGDNTKWNENQNPRMFLAMITYITRNQPEWFRNVLSIAPIMFSNKMARLGKGYMFESKSMKLRTQIPAEMLASIDLKYFNDSTRKKIEKIRPLLIDGTASLSPGMMMGMFNMLSTVLGVSILNLGQKRYTKTTYWWDGLQSSDDFALIVNAPNHEGIQAGVDRFYRTCKLLGINMSKKKSYINRTGTFEFTSFFYRYGFVANFSMELPSFGVSGINESADMSIGVTVIKNNMINNDLGPATAQMALQLFIKDYRYTYRCHRGDTQIQTRRSFEIKKLWEQTRSKAGLLVSDGGPNLYNIRNLHIPEVCLKWELMDEDYQGRLCNPLNPFVSHKEIESVNNAVMMPAHGPAKNMEYDAVATTHSWIPKRNRSILNTSQRGILEDEQMYQKCCNLFEKFFPSSSYRRPVGISSMVEAMVSRARIDARIDFESGRIKKEEFAEIMKICSTIEELRRQK
chain 3: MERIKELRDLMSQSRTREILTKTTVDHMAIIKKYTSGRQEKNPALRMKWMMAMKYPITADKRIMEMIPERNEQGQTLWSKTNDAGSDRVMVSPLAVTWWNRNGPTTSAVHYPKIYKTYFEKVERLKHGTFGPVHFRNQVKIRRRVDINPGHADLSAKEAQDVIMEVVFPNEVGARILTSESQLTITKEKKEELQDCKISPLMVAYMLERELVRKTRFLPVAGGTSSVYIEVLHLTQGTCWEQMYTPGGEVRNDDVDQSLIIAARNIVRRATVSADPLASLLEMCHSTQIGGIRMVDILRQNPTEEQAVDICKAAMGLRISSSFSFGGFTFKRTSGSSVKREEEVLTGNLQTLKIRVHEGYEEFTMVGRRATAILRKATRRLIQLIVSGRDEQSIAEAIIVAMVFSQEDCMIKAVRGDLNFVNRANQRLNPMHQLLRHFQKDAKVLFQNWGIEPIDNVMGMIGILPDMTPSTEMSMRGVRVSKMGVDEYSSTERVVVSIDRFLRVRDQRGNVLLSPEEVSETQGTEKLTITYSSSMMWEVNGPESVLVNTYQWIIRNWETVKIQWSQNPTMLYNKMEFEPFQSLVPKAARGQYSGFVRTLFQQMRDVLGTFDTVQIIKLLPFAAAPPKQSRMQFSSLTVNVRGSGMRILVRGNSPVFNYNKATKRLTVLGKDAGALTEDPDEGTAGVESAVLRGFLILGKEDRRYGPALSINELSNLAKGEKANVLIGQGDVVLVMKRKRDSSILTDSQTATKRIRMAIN
notes: also called 1918 polymerase; 1918 pandemic influenza virus polymerase; copies: + +
Regarding B1, the binding result is listed as “binds”.
